Residue numbers refer to the chain shown, from its start. Names and notes keep the numbering of the source. Each block holds one molecule with its values, some of them ahead of it.
Tests used:
18:0 acyl-ACP [1] = biological target: 18:0 acyl-ACP
14:0-ACP [2] = biological target: 14:0-ACP
[3] = biological target: bay thioesterase triple mutant M197R/R199H/T231K (California bay (Umbellularia californica)); assay: inhibition of 14:0-ACP thioesterase activity; 25 µM cold 12:0-ACP against 5 µM 14C labeled 14:0-ACP as competitor
[4] = biological target: California bay (Umbellularia californica) C12 preferring acyl-ACP thioesterase, wild type, mature protein from pCGN3823 (California bay (Umbellularia californica)); assay: as above
[5] = biological target: bay thioesterase triple mutant M197R/R199H/T231K (California bay (Umbellularia californica)); assay: inhibition kinetics of thioesterase activity; slope inhibition constant of 12:0-ACP with 14:0-ACP as varied substrate
[6] = biological target: California bay (Umbellularia californica) C12 preferring acyl-ACP thioesterase, wild type, mature protein from pCGN3823 (California bay (Umbellularia californica)); assay: as above
[7] = biological target: bay thioesterase triple mutant M197R/R199H/T231K (California bay (Umbellularia californica)); assay: inhibition of 14:0-ACP thioesterase activity; 5 µM cold 12:0-ACP against 5 µM 14C labeled 14:0-ACP as competitor
[8] = biological target: California bay (Umbellularia californica) C12 preferring acyl-ACP thioesterase, wild type, mature protein from pCGN3823 (California bay (Umbellularia californica)); assay: as above
18:0 acyl-ACP [9] = biological target: 18:0 acyl-ACP; remark: listed apart in the source
16:0 acyl-ACP [10] = biological target: 16:0 acyl-ACP
16:0 acyl-ACP [11] = biological target: 16:0 acyl-ACP; remark: listed apart in the source
12:0-ACP [12] = biological target: 12:0-ACP
14:0-ACP [13] = biological target: 14:0-ACP; remark: listed apart in the source
12:0-ACP [14] = biological target: 12:0-ACP; remark: listed apart in the source
[15] = biological target: acyl-ACP substrates (chain length not stated for this assay)
12:0-ACP [16] = biological target: 12:0-ACP; remark: listed apart in the source
14:0-ACP [17] = biological target: 14:0-ACP; remark: listed apart in the source

thioesterase activity, preference 18:0/18:1 (% (18:0/18:1)) (18:0 acyl-ACP [1]): 35
Molecule: mangosteen GarmFatA1 mutant D261K (enzyme)

acyl-ACP thioesterase activity (% of the C14-ACP activity) (16:0 acyl-ACP [11]): 30
Molecule: Cuphea palustris Class II acyl-ACP thioesterase CpFatB2 (MCT34), mature region as lacZ fusion protein (MCT34LZ) (enzyme)

Km,app (12:0-ACP [12]): 1.9 µM
Km,app (14:0-ACP [13]): 6.4 µM
B1: California bay (Umbellularia californica) C12 preferring acyl-ACP thioesterase, wild type, mature protein from pCGN3823 (enzyme)
chain: LEWKPKPKLPQLLDDHFGLHGLVFRRTFAIRSYEVGPDRSTSILAVMNHMQEATLNHAKSVGILGDGFGTTLEMSKRDLMWVVRRTHVAVERYPTWGDTVEVECWIGASGNNGMRRDFLVRDCKTGEILTRCTSLSVLMNTRTRRLSTIPDEVRGEIGPAFIDNVAVKDDEIKKLQKLNDSTADYIQGGLTPRWNDLDVNQHVNNLKYVAWVFETVPDSIFESHHISSFTLEYRRECTRDSVLRSLTTVSGGSSEAGLVCDHLLQLEGGSEVLRARTEWRPKLTDSFRGISVIPAEPRV

thioesterase activity (12:0-ACP [14]): 7 fold reduced
B2: bay thioesterase mutant M197R/R199H (enzyme)
chain: B1 chain with M114R, R116H

thioesterase specific activity (fold decrease) (12:0-ACP [16]): 100
thioesterase specific activity (fold decrease) (14:0-ACP [17]): 30
B5: bay thioesterase mutant R322M/R327Q (enzyme)
chain: B1 chain with R239M, R244Q

The remaining lines, values behind:

Molecule: Cuphea palustris Class II acyl-ACP thioesterase CpFatB1 (MCT29), mature region as lacZ fusion protein (MCT29LZ) (enzyme)
acyl-ACP thioesterase activity (% of the C8-ACP activity) (14:0-ACP [2]): 10

Molecule: 12:0-ACP
Inhibition (%) [3]: 76%
Inhibition (%) [4]: 78%
Ki [5]: 11.6 µM
Ki [6]: 10.2 µM
Inhibition (%) [7]: 48%
Inhibition (%) [8]: 53%

Molecule: mangosteen (Garcinia mangifera) Class I acyl-ACP thioesterase GarmFatA1, wild type (enzyme)
Acyl-ACP Thioesterase activity (cpm/min) (18:0 acyl-ACP [9]): 23900 cpm/min
Acyl-ACP Thioesterase activity (cpm/min) (16:0 acyl-ACP [10]): 4370 cpm/min
Acyl-ACP Thioesterase activity (cpm/min) (18:1 acyl-ACP): 87400 cpm/min

B3: bay thioesterase mutant C320S (enzyme)
chain: B1 chain with C237S
thioesterase activity (% of the wild-type activity) [15]: 80

B4: bay thioesterase mutant R327Q (enzyme)
chain: B1 chain with R244Q
thioesterase specific activity (fold decrease) (12:0-ACP [16]): 100
thioesterase specific activity (fold decrease) (14:0-ACP [17]): 30

B6: bay thioesterase triple mutant M197R/R199H/T231K (enzyme)
chain: B1 chain with M114R, R116H, T148K
Km,app (14:0-ACP [13]): 2.3 µM

From US5955329
